Results from US20050266009A1 (SAVIENT PHARMACEUTICALS, published 2005).
Positions count from the first letter of the chain named.

B1: S1 scFv (scFv)
chain: EVQLVESGGGVVRPGGSLRLSCAASGFTFDLNPKVKHMWVRQAPGKGLEWVSGINWNGGSTGYADSVKGRFTISRDNAKNSLYLQMNSLRAEDTAVYYCARLRPPFLWGQGTLVTVSRGGGGSGGGGSGGGGSSELTQDPAVSVALGQTVRITCQGDSLRSYYASWYQQKPGQAPVLVIYGKNNRPSGIPDRFSGSSSGNTASLTITGAQAEDEADYYCNSRDSSGNHVVFGGGTKLTVLGAAAEQKLISEEDLNGAA
B2: D1 scFv (scFv)
scFv: B1 chain with P104S, L107G

How the values were obtained:
GPIb on human platelets = target: T1, GPIb on human platelets (human, UniProt P07359 17-652); experiment: FACS on human platelets
T1 construct: whole, on cells; also called GPIbα; platelet GPIb

[1] = target: T2, GPIb on guinea pig platelets (guinea pig); experiment: FACS on guinea pig platelets
T2 construct: whole, on cells; also called guinea pig derived platelets

T1 sequence (P07359 17-652): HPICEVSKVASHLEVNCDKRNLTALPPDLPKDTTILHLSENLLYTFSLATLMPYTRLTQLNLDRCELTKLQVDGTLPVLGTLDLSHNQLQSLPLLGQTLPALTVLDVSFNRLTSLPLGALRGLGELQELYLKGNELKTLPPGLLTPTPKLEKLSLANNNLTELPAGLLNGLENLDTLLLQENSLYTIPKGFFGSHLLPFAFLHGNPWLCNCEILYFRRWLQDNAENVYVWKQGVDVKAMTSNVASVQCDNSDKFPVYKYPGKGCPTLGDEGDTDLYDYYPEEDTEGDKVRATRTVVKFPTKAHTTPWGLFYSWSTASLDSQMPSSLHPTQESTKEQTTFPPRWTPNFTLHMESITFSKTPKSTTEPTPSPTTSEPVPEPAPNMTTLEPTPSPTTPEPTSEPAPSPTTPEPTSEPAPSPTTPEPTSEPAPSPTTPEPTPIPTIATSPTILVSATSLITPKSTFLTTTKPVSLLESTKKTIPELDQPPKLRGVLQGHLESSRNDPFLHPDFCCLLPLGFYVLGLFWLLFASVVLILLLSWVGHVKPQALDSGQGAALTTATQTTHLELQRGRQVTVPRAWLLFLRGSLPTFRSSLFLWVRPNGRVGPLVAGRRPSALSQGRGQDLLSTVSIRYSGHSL

| Binder | fold binding capacity relative to Y1 (GPIb on human platelets) [fold] | fold binding capacity relative to Y1 [1] [fold] |
| --- | --- | --- |
| B1 | ~25 | – |
| B2 | – | ~25 |
